The record followed here is patent publication US20110129478A1.

Test [1] deals with human CD179b protein on the cell membrane surface of human cancer cell lines (human) (UniProt P15814). The test is described as follows: cell-based or functional assay.
For test [2] the target is unchanged. The test is described as follows: flow cytometry on human cancer cell lines expressing CD179b, against mouse IgG2a isotype control.

Chain of UniProt P15814 (P15814 38-213): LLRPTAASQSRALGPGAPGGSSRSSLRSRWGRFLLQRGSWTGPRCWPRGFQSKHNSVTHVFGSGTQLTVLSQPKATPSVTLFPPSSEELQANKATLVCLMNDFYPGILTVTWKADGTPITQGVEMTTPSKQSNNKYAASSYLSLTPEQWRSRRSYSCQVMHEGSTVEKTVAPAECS

For the substance “mouse anti-human CD179b antibody (clone name: GA170; manufactured by Santa Cruz Biotechnology)”, in test [1], the ADCC activity (chromium 51 release), BDCM cells was 32.3%; the ADCC activity (chromium 51 release), Namalwa cells was determined as 32.6%; the ADCC activity (chromium 51 release), RPMI1788 cells is 28.3%; the CDC activity (chromium 51 release), BDCM cells was 21.2%. Besides, in test [1], the CDC activity (chromium 51 release), Namalwa cells turned out to be 30.5% and the CDC activity (chromium 51 release), RPMI1788 cells is 30.5%. For the same substance, the fluorescence intensity higher than that of the isotype control in test [2] is above 10%.
